Test [1] concerns the target T1, Human serum albumin (HSA) (human, UniProt P02768 25-609).
T1 construct: also called human albumin; recombinant human albumin
As to the kind of experiment: ELISA on coated human albumin, anti-human Fc HRP, A650, one site-total binding fit.
Method: (§1) Medisorp plates were coated with albumin protein at 2 μg/ml, 50 μl/well at 4° C. overnight (human, murine, and rat albumin-Sigma, cynomolgus monkey albumin-Abcam). 1× Fish Gelatin (blocking agent, Bethyl Laboratories) was added to albumin-coated wells followed by a 1 hour incubation at RT. Titrations of sdAb fusion proteins (starting at 100 nM, across 1:3 or down 1:4) were added and incubated for 1 hour at RT. Plates were washed 3 times with 0.1% D-PBST, and then anti-human Fc HRP antibody (1:2000 in 0.1% D-PBST, Jackson) was added and incubated for 30 minutes at RT. Plates were washed 3 times with 0.1% D-PBST, and then TMB substrate was added. Absorbance at 650 nm was read on a plate reader (Molecular Devices) and data were plotted using equation one site-total binding (Model: Y=Bmax*X/(Kd+X)+NS*X+Background, GraphPad Prism).

Test [2] deals with T2, Mouse Fc-tagged human albumin domain III (human, UniProt P02768 405-609, limits assumed).
T2 construct: also called albumin domain 3 (mouse Fc tagged); albumin domain 3; not shown: mouse Fc tag
As to the kind of experiment: biolayer interferometry, mouse Fc-tagged human albumin domain III (10 ug/ml) on anti-mouse IgG Fc biosensor, pH 5.

In test [3] the target is T3, Cynomolgus monkey serum albumin (CSA) (cynomolgus monkey, UniProt A2V9Z4 25-608).
T3 construct: Bought protein (Abcam); also called cynomolgus monkey albumin
As to the kind of experiment: ELISA on coated cynomolgus monkey albumin, anti-human Fc HRP, A650, one site-total binding fit.
Method: as §1

For test [4], the target named is T4, Rat serum albumin (RSA) (rat, UniProt P02770 25-608).
T4 construct: Bought protein (Sigma); also called rat albumin
Briefly: ELISA on coated rat albumin, anti-human Fc HRP, A650, one site-total binding fit.
Method: as §1

For test [5], the target named is T4, Rat serum albumin (RSA). Described as above. This is another data set of the same source.
Method: as §1
Test [6] has as its target T3, Cynomolgus monkey serum albumin (CSA). As to the kind of experiment: ELISA on coated cynomolgus monkey albumin, anti-human Fc HRP, A650, one site-total binding fit. This is another data set of the same source.
Method: as §1
Test [7] has as its target T5, Murine serum albumin (MSA) (mouse, UniProt P07724 25-608).
T5 construct: Bought protein (Sigma); also called murine albumin; mouse albumin
As to the kind of experiment: ELISA on coated murine albumin, anti-human Fc HRP, A650, one site-total binding fit.
Method: as §1

Test [8] has as its target T5, Murine serum albumin (MSA). The description is as above. This is another data set of the same source.
Method: as §1
Test [9] concerns the target T1, Human serum albumin (HSA). Briefly: ELISA on coated human albumin, anti-human Fc HRP, A650, one site-total binding fit. The source holds these as a separate data set.
Method: as §1

Read-outs that look alike come from different tables or passages of the source.

T1 sequence (P02768 25-609): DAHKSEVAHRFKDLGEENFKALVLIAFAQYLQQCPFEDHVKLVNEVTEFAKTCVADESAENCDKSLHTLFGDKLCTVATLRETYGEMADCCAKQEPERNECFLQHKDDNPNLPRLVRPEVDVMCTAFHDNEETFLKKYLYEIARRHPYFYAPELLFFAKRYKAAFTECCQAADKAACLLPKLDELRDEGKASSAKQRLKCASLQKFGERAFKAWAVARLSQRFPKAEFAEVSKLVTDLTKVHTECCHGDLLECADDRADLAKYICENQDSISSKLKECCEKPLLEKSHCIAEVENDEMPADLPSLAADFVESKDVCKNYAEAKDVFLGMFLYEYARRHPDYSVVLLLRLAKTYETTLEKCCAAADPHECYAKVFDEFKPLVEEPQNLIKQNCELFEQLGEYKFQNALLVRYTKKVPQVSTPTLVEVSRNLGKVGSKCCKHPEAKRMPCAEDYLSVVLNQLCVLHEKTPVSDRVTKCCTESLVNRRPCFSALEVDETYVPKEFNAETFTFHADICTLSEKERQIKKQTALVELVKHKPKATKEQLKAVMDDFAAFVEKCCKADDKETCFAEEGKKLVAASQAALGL
T4 sequence (P02770 25-608): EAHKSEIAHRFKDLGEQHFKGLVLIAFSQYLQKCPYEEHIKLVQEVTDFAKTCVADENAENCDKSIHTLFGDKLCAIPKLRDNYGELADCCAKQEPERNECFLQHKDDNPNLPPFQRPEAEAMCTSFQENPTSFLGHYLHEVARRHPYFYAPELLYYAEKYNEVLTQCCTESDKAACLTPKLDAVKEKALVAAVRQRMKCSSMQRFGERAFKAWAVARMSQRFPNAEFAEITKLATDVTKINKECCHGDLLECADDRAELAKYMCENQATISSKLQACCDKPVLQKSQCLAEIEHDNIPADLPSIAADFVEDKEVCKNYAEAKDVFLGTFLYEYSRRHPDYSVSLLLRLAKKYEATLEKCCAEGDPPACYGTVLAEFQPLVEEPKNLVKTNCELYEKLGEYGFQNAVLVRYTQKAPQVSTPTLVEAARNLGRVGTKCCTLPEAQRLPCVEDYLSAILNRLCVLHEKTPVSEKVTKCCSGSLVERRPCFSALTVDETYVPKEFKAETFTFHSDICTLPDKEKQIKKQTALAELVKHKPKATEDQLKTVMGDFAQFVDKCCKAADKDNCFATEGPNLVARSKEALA
T3 sequence (A2V9Z4 25-608): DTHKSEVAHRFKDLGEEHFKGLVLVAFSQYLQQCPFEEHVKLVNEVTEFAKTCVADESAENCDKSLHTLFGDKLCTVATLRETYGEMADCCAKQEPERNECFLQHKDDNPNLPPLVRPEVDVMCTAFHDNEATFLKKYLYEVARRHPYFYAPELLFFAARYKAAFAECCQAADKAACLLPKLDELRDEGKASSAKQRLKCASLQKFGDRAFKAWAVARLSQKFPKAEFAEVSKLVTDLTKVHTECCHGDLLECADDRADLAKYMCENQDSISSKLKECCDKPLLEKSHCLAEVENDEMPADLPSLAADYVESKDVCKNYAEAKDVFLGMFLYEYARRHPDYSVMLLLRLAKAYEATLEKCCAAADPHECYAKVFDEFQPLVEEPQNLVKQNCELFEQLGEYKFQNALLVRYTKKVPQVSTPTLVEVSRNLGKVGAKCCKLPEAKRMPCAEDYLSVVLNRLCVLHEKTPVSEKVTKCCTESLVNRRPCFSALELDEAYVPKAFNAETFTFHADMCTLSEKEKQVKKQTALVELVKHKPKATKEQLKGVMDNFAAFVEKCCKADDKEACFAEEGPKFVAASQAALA
T2 sequence (P02768 405-609 limits assumed): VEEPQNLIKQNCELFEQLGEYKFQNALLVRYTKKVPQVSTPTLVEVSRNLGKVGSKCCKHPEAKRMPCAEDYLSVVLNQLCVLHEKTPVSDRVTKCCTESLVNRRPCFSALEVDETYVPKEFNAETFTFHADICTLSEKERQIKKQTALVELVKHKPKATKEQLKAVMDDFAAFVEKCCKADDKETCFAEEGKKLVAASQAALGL

B1: 4A01-NNT-hFc (Fc fusion)
chain: QVQLQESGGGLVQPGGSLRLSCAASGFAFSTSGMVWVRQATGKGLEWVSTISDDSRIIRYADSVNGRFTISRDNAENTLYLLMNSLKPEDTAVYYCATYRAGSRIGSYEDYYRGQGTQVTVSSGGPSVFLFPPKPKDTLMISRTPEVTCVVVDVSHEDPEVKFNWYVDGVEVHNAKTKPREEQYNSTYRVVSVLTVLHQDWLNGKEYKCKVSNKALPAPIEKTISKAKGQPREPQVYTLPPSRDELTKNQVNLTCLVKGFYPSDIAVEWESNGQPENNYKTTPPVLDSDGSFFLNSTLTVDKSRWQQGNVFSCSVMHEALHNHYTQKSLSLSPG
notes: Monomeric sdAb-Fc fusion (Fc S364N, Y407N, K409T = NNT); also called 1m4A01; anti-albumin sdAb 4A01
With B1, the Bmax in test [1] was 1.34 A650; in test [3] it was 1.27 A650; with Rat serum albumin (RSA) [4] it was 1.24 A650; in test [7], 1.26 A650. The Kd worked out at 0.105 nM in test [1]; 0.113 nM in test [3]; 0.144 nM in the test with Rat serum albumin (RSA) [4]; 0.182 nM with Rat serum albumin (RSA) [5]; 0.162 nM in test [6]; 0.114 nM in test [7]. The Kd in test [8] turned out to be 0.193 nM; in test [9], 0.171 nM. Also, in test [2], the binding result was “no binding”.

The values are drawn from patent US20250353911A1 (INHIBRX BIOSCIENCES, published 2025).
